Reference: patent US20060233785A1, “Immunointeractive molecules and uses thereof” (priority 2001, published 2006)
Changes are numbered by the printed parent chain.

B1: rHev b 6: recombinant Hev b 6 (prohevein) expressed in E. coli from pPROEX-HTa with 6-His tag (protein)
chain: EQCGRQAGGKLCPNNLCCSQWGWCGSTDEYCSPDHNCQSNCKDSGEGVGGGSASNVLATYHLYNSQDHGWDLNAASAYCSTWDANKPYSWRSKYGWTAFCGPVGAHGQSSCGKCLSVTNTGTGAKTTVRIVDQCSNGGLDLDVNVFRQLDTDGKGYERGHITVNYQFVDCGDSFNPLFSVMKSSVIN
modifications: left off: small tags and cut ends
notes: recombinant Hev b 6 (prohevein) expressed in E. coli from pPROEX-HTa with 6-His tag
B2: sulphonated rHev b 6: purified rHev b 6 sulphonated in sulphonation buffer to improve solubility (protein)
chain: B1 chain
modifications: left off: small tags and cut ends
B3: mutant rHev b 6: rHev b 6 with cysteine to alanine substitution at amino acid 3 of the mature protein (protein)
chain: B1 chain with C3A
modifications: left off: small tags and cut ends
notes: rHev b 6 with cysteine to alanine substitution at amino acid 3 of the mature protein

Tests used:
[1] = system: Hev b 6-specific mAb 1A5.4; experiment: Inhibition ELISA: mAb 1A5.4 binding to rHev b 6; parameters: species or system mouse; conditions: FIG. 8A
Method: (§1) Inhibition ELISA were carried out to confirm the lack of IgE reactivity of mutant rHev b 6. Various concentrations of mutant rHev b 6 and rHev b 6, ranging from 0.0016 μg/ml to 125 μg/ml were preincubated with patient sera before the sera were used in ELISA to measure IgE binding to rHev b 6. Incubation of sera with KLH was used as a negative control. Values are presented as percent inhibition±standard deviation. (A) The Hev b 6-specific mAb 1A5.4 was incubated with KLH, mutant rHev b 6 and rHev b 6 and mAb binding to rHev b 6 detected. Sera from three latex-allergic, Hev b 6 sensitised subjects A7 (B), A6 (C) and A8 (D) were incubated with KLH, mutant rHev b 6 and rHev b 6 and IgE binding to rHev b 6 detected. The horizontal line indicates the level below which inhibition was considered to non-specific.
In order to confirm the ability of the mutant rHev b 6 to inhibit Ab binding, rHev b 6 and mutant rHev b 6 were used to inhibit binding of the Hev b 6-specific mAb 1A5.4 to rHev b 6 (FIG. 8A).

[2] = Immunisation of mice with rHev b 6, serum ELISA; assay type: in vivo, BALB/c mice; conditions: eight mice; 20 μg intraperitoneally
Method: Monoclonal antibody production followed established protocols (Sutherland et al, 2002, supr; Goding, J. Monoclonal Antibodies: principles and practice 3rd ed. London: Academic Press. 492, 1996). Approval was obtained from the Monash University Animal Ethics Committee. Eight BALB/c mice were immunised with 20 μg rHev b 6 in 100 ill of PBS, intraperitoneally, three times at three weekly intervals. The first injection was given with Complete Freund's Adjuvant (100 μl; Sigma) and the two subsequent injections with Incomplete Freund's Adjuvant (100 μl; Sigma). Mice were finally boosted with 20 μg rHev b 6 in 200 μl PBS intraperitoneally 3 days before being sacrificed. Hybridomas were generated by fusing immune mouse spleen cells with murine myeloma cells (line X-63.Ag8.653; 17) and supernatants were screened for antibody to rHev b 6 and glove extract by performing a duplicate ELISA as described below. Positive hybridomas were expanded and cloned by limiting dilution.

[3] = system: IgE from latex allergic subjects; experiment: Western blotting of rHev b 6 forms with IgE of patient sera (Example 8); assay type: binding, human
Method: FIG. […] Gels were either stained with Coomassie Brilliant Blue (1) or transferred to nitrocellulose. Strips with transferred protein were incubated with the Hev b 6-specific mAb 1A5.4 and binding detected (2). Strips with transferred protein were also incubated with sera from two latex allergic, Hev b 6 sensitized subjects (3 and 4) and one non-latex-allergic, atopic subject (5). The presence or absence of IgE binding was then detected. […] Plates were coated with rHev b 6 and sulphonated rHev b 6 and the presence or absence of IgE-binding detected. As a positive control the Hev b 6-specific mAb 1A5 was used. NB indicates no binding of IgE was detected.
Four μg of rHev b 6 or sulphonated rHev b 6 were separated on 16% sodium dodecyl sulphate (SDS) polyacrylamide gels with 4% stacking gel. Electrophoresis was performed at 125V for 2 h on a Novex Xcell II Mini-Cell system (Novex, CA, USA). Proteins were visualized with Coomassie Brilliant Blue R-250 (Sigma). The separated proteins were electrophoretically transferred to nitro-cellulose membranes (BA 0.45μ, Schleicher and Schuell, Dassel, Germany) at 25V for 1 hr in transfer buffer. Membranes were blocked for 1 h at RT in 10% skim milk powder (SMP) in PBS, washed once in 0.05% Tween20/PBS and twice in PBS. Washed membranes were incubated for 1 hour at RT with either culture supernatant containing the Hev b 6-specific mAb 1A5.4, diluted 1 in 100 in 1% SMP/PBS or human serum, diluted 1 in 5 in 1% SMP/PBS. For mAb detection membranes were washed as above and incubated for 1 h at RT with goat HRP-conjugated anti-mouse Ig (Silenus), diluted 1 in 2000 in 1% SMP/PBS. For IgE detection, membranes were incubated for 1 h at RT with rabbit anti-human IgE (Dako, Denmark) at 1 in 1000 dilution, followed by swine anti-rabbit IgG-HRP conjugate (Promega) at 1 in 1000 dilution. After washing, the binding of 1A5.4 mAb and patient serum IgE to rHev b 6 was detected using hydrogen peroxide/diaminobenzidine solution.

[4] = system: IgE binding to rHev b 6; experiment: Inhibition ELISA: IgE binding to rHev b 6; parameters: species or system human; conditions: for inhibitor concentration required to give 30% inhibition of IgE binding: estimated; for maximum inhibition of IgE binding to rHev b 6: third subject (FIG. 8D), 125 μg/ml inhibitor
Method: as §1
To confirm the lack of IgE reactivity of mutant rHev b 6, inhibition ELISA were performed. In these assays, IgE binding to rHev b 6 was inhibited by preincubation of sera from latex allergic, Hev b 6 reactive subjects with either rHev b 6 or mutant rHev b 6 over a range of concentrations. To determine the level of non-specific inhibition inherent in such an assay, an initial non-specific inhibition assay was performed. The serum of a latex-allergic, Hev b 5 positive subject was incubated with rHev b 6 and mutant rHev b 6 and then the ability of IgE from this serum to bind rHev b 5 in an ELISA was measured. When this assay was undertaken, binding of IgE to rHev b5 was inhibited at a maximum of 20% by rHev b 6 and mutant rHev b 6 (data not shown).

[5] = system: latex-specific serum IgE; experiment: ELISA detecting latex-specific serum IgE (Example 3); assay type: binding, human; conditions: ten latex-allergic patients; serum 1:10
Method: FIG. 3 is a graphical representation of an ELISA detecting latex-specific serum IgE. ELISA plates were coated with 10 μg/ml rHev b 6 and glove extract, blocked with skim milk powder and incubated with patient (P1-10) and non-allergic control serum (NA1-6) diluted 1:10. Antibody binding was detected by incubation with rabbit anti-human IgE, swine anti-rabbit immunoglobulines-HRP and o-phenylenediamine as substrate. Mean values+SD for triplicate wells are shown. The cut-off for positive was 2 SD above the mean OD of non-allergic subjects for rHev b 6 (dotted line) and glove extract (black line).
Hybridoma supernatants were tested for reactivity to rHev b 6, glove extract and Hev b 6 peptides by ELISA using an established protocol (Sutherland et al., 2002, supra). Patient serum samples were tested for latex-specific IgE using a similar ELISA protocol with rabbit anti-human IgE (1/1000) and swine anti-rabbit immunoglobulins-horseradish peroxidase conjugate (1/1000). Monoclonal antibody isotypes were determined using a mouse immunoglobulin isotyping ELISA kit (BD Biosciences, San Diego, Calif., USA).

[6] = non-reducing SDS-PAGE, sera of latex allergic subjects
[7] = reducing SDS-PAGE (data not shown)

Row | Molecule | inhibition of mAb 1A5.4 binding to rHev b 6 [1] | number of immunised mice whose serum reacted with glove extract by ELISA [2] | number of immunised mice with strong polyclonal immune response to rHev b 6 [2] | IgE reactivity in Western blotting [3, 6] | IgE reactivity in Western blotting [3, 7] | inhibitor concentration required to give 30% inhibition of IgE binding [4] [µg/mL] | inhibition of IgE binding to rHev b 6 ([4]; higher inhibitor concentrations, FIGS. 8B, C and D) [%] | maximum inhibition of IgE binding to rHev b 6 [4] [%] | number of latex-allergic patients with serum IgE binding by ELISA [5] | fold more inhibitor required to inhibit IgE binding as effectively as rHev b 6 ([4]; at 30% inhibition) | inhibition of IgE binding to rHev b 6 ([4]; two subjects (FIGS. 8B and C), 0.0016 to 125 μg/ml)
1 | B1 | comparable inhibition | seven | eight | reactive | reactive | 0.01 | 100 | 100 | eight |  | 
2 | B2 |  |  |  | failed to react | reactive |  |  |  |  |  | 
3 | B3 | comparable inhibition |  |  |  |  | 125 |  | 32 |  | 12,500 fold | failed to inhibit above the level determined for non-specific inhibition
